Test results reported in patent US20170260242, “METHOD FOR MODIFYING RNA BINDING PROTIEN USING PPR MOTIF” (Kyushu University, National University Corporation, published 2017).

Key:
5&6/5-T5I = target: T1, 5&6/5-T5I (Arabidopsis thaliana, UniProt Q9SF38 SEQ:123-204); test: EMSA; position 5 not among those with 10-fold or more reduction (position-level); details: tags: N-terminal thioredoxin, C-terminal His; label: 32P-UTP internal
T1 chain: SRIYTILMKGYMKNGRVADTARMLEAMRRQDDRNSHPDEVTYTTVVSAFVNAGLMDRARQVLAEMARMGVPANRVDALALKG
Experimental: (§1) The RNA binding activity of the mini PPR protein was analyzed by gel shift method. […] Then, to the reaction solution was added 4 microliters of 80% glycerol solution, and 10 μL was developed in 10% nondenaturing polyacrylamide gel comprising 1×TBE (89 mM Tris-HCl, 89 mM Boric acid, and 2 mM EDTA) and the gel was dried after electrophoresis. The radioactivity of RNA in the gel was measured with Bioimaging Analyzer BAS2000 (From Fujifilm). […] This is because the molecular weight of the 32P-labeled RNA/protein conjugate is larger than the molecular weight of the 32P-labeled RNA alone and thus mobility in electrophoresis had become slower. The binding between protein and RNA was quantified based on the results in FIGS. 1C-H (FIG. 1B), and evaluated by determining the disassociation constant (Kd) (FIG. 2C).
(§2) Using HCF152/5&6 as the model, mini PPR proteins having one amino acid substitution introduced centering on the aforementioned positions (1st, 2nd, 4th, 5th, 8th, 9th, 11th, and 12th) were prepared. The amino acid substitutions were based on substitution to alanine. […] Affinity with RNA was analyzed by the same gel shift method as above (FIG. 3), and the affinity with the RNA was evaluated with Kd (FIG. 4B).

5&6/5-K12M,6-N12R = target: T2, 5&6/5-K12M,6-N12R (Arabidopsis thaliana, UniProt Q9SF38 SEQ:124-197); test: EMSA; partly restored vs 6-N12R; details: tags: N-terminal thioredoxin, C-terminal His; label: 32P-UTP internal
T2 chain: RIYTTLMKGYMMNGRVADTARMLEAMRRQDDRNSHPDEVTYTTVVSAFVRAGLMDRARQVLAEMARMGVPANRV
Experimental: (§3) The RNA binding activity of the mini PPR protein was analyzed by gel shift method. […] Then, to the reaction solution was added 4 microliters of 80% glycerol solution, and 10 μL was developed in 10% nondenaturing polyacrylamide gel comprising 1×TBE (89 mM Tris-HCl, 89 mM Boric acid, and 2 mM EDTA) and the gel was dried after electrophoresis. The radioactivity of RNA in the gel was measured with Bioimaging Analyzer BAS2000 (From Fujifilm). […] The binding between protein and RNA was quantified based on the results in FIGS. 1C-H (FIG. 1B), and evaluated by determining the disassociation constant (Kd) (FIG. 2C).

6&7/6-V1R = target: T3, 6&7/6-V1R (Arabidopsis thaliana, UniProt Q9SF38 SEQ:124-195); test: EMSA; affinity improved vs 6&7; value in figure; details: tags: N-terminal thioredoxin, C-terminal His; label: 32P-UTP internal
T3 chain: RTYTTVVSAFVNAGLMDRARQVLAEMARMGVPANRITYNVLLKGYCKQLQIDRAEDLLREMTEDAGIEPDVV
Experimental: as §3

6&7/7-N4T = target: T4, 6&7/7-N4T (Arabidopsis thaliana, UniProt Q9SF38 SEQ:124-195); test: EMSA; affinity improved vs 6&7; value in figure; details: tags: N-terminal thioredoxin, C-terminal His; label: 32P-UTP internal
T4 chain: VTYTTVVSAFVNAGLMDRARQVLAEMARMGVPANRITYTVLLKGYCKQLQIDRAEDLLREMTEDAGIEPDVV
Experimental: as §3

6&7/6-S8K = target: T5, 6&7/6-S8K (Arabidopsis thaliana, UniProt Q9SF38 SEQ:124-195); test: EMSA; affinity improved vs 6&7; value in figure; details: tags: N-terminal thioredoxin, C-terminal His; label: 32P-UTP internal
T5 chain: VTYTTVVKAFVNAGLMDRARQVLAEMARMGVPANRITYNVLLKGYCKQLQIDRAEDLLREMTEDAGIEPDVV
Experimental: as §3

HCF152/5&6 [1] = target: T6, HCF152/5&6 (Arabidopsis thaliana, UniProt Q9SF38 SEQ:124-197); test: EMSA; 6 mM MgCl2, 30 mM KCl, pH 7.9, 25 C; details: tags: N-terminal thioredoxin, C-terminal His; label: 32P-UTP internal
T6 chain: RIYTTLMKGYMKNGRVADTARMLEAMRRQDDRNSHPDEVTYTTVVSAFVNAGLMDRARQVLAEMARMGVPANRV
Experimental: as §1

5&6/5-M11A = target: T7, 5&6/5-M11A (Arabidopsis thaliana, UniProt Q9SF38 SEQ:123-204); test: EMSA; position 11 not among those with 10-fold or more reduction (position-level); details: tags: N-terminal thioredoxin, C-terminal His; label: 32P-UTP internal
T7 chain: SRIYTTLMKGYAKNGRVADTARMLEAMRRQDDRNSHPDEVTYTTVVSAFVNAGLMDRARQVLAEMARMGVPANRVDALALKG
Experimental: as §1, §2

5&6/5-M11I = target: T8, 5&6/5-M11I (Arabidopsis thaliana, UniProt Q9SF38 SEQ:123-204); test: as above; details: tags: N-terminal thioredoxin, C-terminal His; label: 32P-UTP internal
T8 chain: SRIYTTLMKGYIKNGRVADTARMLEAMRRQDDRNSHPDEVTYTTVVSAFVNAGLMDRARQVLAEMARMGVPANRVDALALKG
Experimental: as §1, §2

5&6/5-K12N,6-N12K = target: T9, 5&6/5-K12N,6-N12K (Arabidopsis thaliana, UniProt Q9SF38 SEQ:124-197); test: EMSA; affinity improved vs 5-K12N; value in figure; details: tags: N-terminal thioredoxin, C-terminal His; label: 32P-UTP internal
T9 chain: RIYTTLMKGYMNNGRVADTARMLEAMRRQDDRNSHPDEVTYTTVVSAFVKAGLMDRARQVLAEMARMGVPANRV
Experimental: as §3

5&6/5-N13L = target: T10, 5&6/5-N13L (Arabidopsis thaliana, UniProt Q9SF38 SEQ:123-204); test: EMSA; position 13 not among those with 10-fold or more reduction (position-level); details: tags: N-terminal thioredoxin, C-terminal His; label: 32P-UTP internal
T10 chain: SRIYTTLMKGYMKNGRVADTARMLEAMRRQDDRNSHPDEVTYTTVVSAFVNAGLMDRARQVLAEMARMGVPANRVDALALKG
Experimental: as §1, §2

5&6/5-N13A = target: T11, 5&6/5-N13A (Arabidopsis thaliana, UniProt Q9SF38 SEQ:123-204); test: as above; details: tags: N-terminal thioredoxin, C-terminal His; label: 32P-UTP internal
T11 chain: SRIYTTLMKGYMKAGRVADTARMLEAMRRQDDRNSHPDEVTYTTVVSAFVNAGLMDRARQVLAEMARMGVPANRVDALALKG
Experimental: as §1, §2

5&6/5-G14A = target: T12, 5&6/5-G14A (Arabidopsis thaliana, UniProt Q9SF38 SEQ:124-197); test: EMSA; position 14 not among those with 10-fold or more reduction (position-level); details: tags: N-terminal thioredoxin, C-terminal His; label: 32P-UTP internal
T12 chain: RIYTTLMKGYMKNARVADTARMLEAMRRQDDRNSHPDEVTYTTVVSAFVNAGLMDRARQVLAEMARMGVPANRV
Experimental: as §1, §2

5&6/5-G14D = target: T13, 5&6/5-G14D (Arabidopsis thaliana, UniProt Q9SF38 SEQ:124-197); test: as above; details: tags: N-terminal thioredoxin, C-terminal His; label: 32P-UTP internal
T13 chain: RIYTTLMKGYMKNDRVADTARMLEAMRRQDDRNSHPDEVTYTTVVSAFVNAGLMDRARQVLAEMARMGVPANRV
Experimental: as §1, §2

HCF152/8&9 = target: T14, HCF152/8&9 (Arabidopsis thaliana, UniProt Q9SF38 SEQ:124-195); test: EMSA; 6 mM MgCl2, 30 mM KCl, pH 7.9, 25 C; details: tags: N-terminal thioredoxin, C-terminal His; label: 32P-UTP internal
T14 chain: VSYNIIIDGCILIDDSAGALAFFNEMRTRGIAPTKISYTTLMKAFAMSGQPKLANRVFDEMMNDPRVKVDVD
Experimental: as §3

HCF152/10&11 = target: T15, HCF152/10&11 (Arabidopsis thaliana, UniProt Q9SF38 SEQ:124-195); test: EMSA; 6 mM MgCl2, 30 mM KCl, pH 7.9, 25 C; details: tags: N-terminal thioredoxin, C-terminal His; label: 32P-UTP internal
T15 sequence: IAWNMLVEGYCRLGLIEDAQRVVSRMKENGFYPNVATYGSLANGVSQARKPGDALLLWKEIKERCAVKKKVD
Experimental: as §3

5&6/5-K12H = target: T16, 5&6/5-K12H (Arabidopsis thaliana, UniProt Q9SF38 SEQ:124-197); test: EMSA; Kd almost equivalent to wild type 5&6; value in figure; details: tags: N-terminal thioredoxin, C-terminal His; label: 32P-UTP internal
T16 chain: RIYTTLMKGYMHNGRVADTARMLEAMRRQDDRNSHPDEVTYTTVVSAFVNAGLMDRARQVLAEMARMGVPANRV
Experimental: as §1

8&9/9-K8D = target: T17, 8&9/9-K8D (Arabidopsis thaliana, UniProt Q9SF38 SEQ:124-194); test: EMSA; no significant difference vs 8&9; details: tags: N-terminal thioredoxin, C-terminal His; label: 32P-UTP internal
T17 chain: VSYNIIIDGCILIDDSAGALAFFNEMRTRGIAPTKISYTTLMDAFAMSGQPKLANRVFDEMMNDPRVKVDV
Experimental: as §3

8&9/8-D8K,9-K8D = target: T18, 8&9/8-D8K,9-K8D (Arabidopsis thaliana, UniProt Q9SF38 SEQ:124-194); test: EMSA; no significant difference vs 8&9; details: tags: N-terminal thioredoxin, C-terminal His; label: 32P-UTP internal
T18 chain: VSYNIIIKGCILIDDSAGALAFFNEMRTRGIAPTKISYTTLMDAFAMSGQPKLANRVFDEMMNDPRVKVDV
Experimental: as §3

8&9/8-D8K = target: T19, 8&9/8-D8K (Arabidopsis thaliana, UniProt Q9SF38 SEQ:124-194); test: EMSA; no change vs 8&9; details: tags: N-terminal thioredoxin, C-terminal His; label: 32P-UTP internal
T19 chain: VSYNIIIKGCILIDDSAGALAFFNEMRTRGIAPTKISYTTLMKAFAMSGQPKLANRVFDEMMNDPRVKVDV
Experimental: as §1

HCF152/9&10 = target: T20, HCF152/9&10 (Arabidopsis thaliana, UniProt Q9SF38 SEQ:124-194); test: EMSA; A>G>U; 200 nM protein; details: tags: N-terminal thioredoxin, C-terminal His; label: 5'-32P
T20 sequence: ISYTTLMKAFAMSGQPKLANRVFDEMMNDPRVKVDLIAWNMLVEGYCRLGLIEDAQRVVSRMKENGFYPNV
Experimental: (§4) The binding specificity of the mini PPR proteins were analyzed by gel shift method. […] Then, to the reaction solution was added 4 μl of 80% glycerol solution, and 10 μL was developed in 10% nondenaturing polyacrylamide gel comprising 1×TBE (89 mM Tris-HCl, 89 mM Boric acid, and 2 mM EDTA) and the gel was dried after electrophoresis. The radioactivity of RNA in the gel was measured with Bioimaging Analyzer BAS2000 (From Fujifilm).

HCF152/5&6 [2] = target: T6, HCF152/5&6; test: EMSA; A>G>U; 200 nM protein; details: tags: N-terminal thioredoxin, C-terminal His; label: 5'-32P
Experimental: as §4

HCF152/2&3 = target: T21, HCF152/2&3 (Arabidopsis thaliana, UniProt Q9SF38 SEQ:124-194); test: EMSA; A>G>U; 200 nM protein; details: tags: N-terminal thioredoxin, C-terminal His; label: 5'-32P
T21 sequence: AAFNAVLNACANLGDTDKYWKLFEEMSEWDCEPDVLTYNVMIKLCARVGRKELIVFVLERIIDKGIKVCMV
Experimental: as §4

HCF152/7&8 = target: T22, HCF152/7&8 (Arabidopsis thaliana, UniProt Q9SF38 SEQ:124-196); test: EMSA; A>U>G; 200 nM protein; details: tags: N-terminal thioredoxin, C-terminal His; label: 5'-32P
T22 chain: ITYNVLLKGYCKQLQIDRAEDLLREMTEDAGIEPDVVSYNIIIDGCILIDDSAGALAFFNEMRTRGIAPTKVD
Experimental: as §4

[3] = target: T23, CAR4/6 (CRR4 PPR motif 6) (Arabidopsis thaliana); test: EMSA; preference for A; details: tags: N-terminal thioredoxin, C-terminal His; label: 5'-32P
T23 chain: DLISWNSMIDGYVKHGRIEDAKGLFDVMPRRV

CAR4/6 (I1L) = target: T24, CAR4/6 (I1L) (Arabidopsis thaliana, UniProt O22137 SEQ:124-155); test: EMSA; did not bind A; details: tags: N-terminal thioredoxin, C-terminal His; label: 5'-32P
T24 chain: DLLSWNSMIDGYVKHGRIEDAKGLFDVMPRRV

B1: BD120 (petB) (ssRNA)
RNA: CUGGAUGGAAUUUCAGUGAAUUAGACUGAGAAGAAUCUUGAAGUUCUAGCUUUUAGCUCGAUACAAAAAAGUAAAGUAUGCAGGUCUAACAAUUUUAGCCUAUUCUCCUUUGGUAGUUCG
binding result (5&6/5-T5I): binds
Kd (5&6/5-K12M,6-N12R): 473 nM
binding result (6&7/6-V1R): binds
binding result (6&7/7-N4T): binds
binding result (6&7/6-S8K): binds
Kd (HCF152/5&6 [1]): 21.1 nM
binding result (5&6/5-M11A): binds
binding result (5&6/5-M11I): binds
binding result (5&6/5-K12N,6-N12K): binds
binding result (5&6/5-N13L): binds
binding result (5&6/5-N13A): binds
binding result (5&6/5-G14A): binds
binding result (5&6/5-G14D): binds
Kd (HCF152/8&9): 5.3 nM
Kd (HCF152/10&11): 5240 nM
binding result (5&6/5-K12H): binds
binding result (8&9/9-K8D): binds
binding result (8&9/8-D8K,9-K8D): binds
binding result (8&9/8-D8K): binds

B2: LA25 (ssRNA)
RNA: AUCGAAAAAAAAAAAAAAAAAAAAAAAAA
binding result (HCF152/9&10): binds
binding result (HCF152/5&6 [2]): binds
binding result (HCF152/2&3): binds
binding result (HCF152/7&8): binds
binding result [3]: binds
binding result (CAR4/6 (I1L)): no binding
